Measurements from patent publication US20060160990A1 (RIKEN, published 2006).

Experiments:
[1] = target: the molecule itself; assay: self-association; pseudonative SDS/PAGE, 12.5% acrylamide, sample not boiled
Text: Since Kaede forms a tetramer, there may be cases where its expression pattern becomes abnormal when another protein is fused with Kaede. Thus, in Kaede, threonine (T) at position 158 was substituted with arginine (R), and alanine (A) at position 160 was substituted with glutamic acid (E), so as to produce a dimeric mutant. This mutant was named as Kaede 2. The amino acid sequence and nucleotide sequence of Kaede 2 are shown in SEQ ID NOS: 7 and 8 in the sequence listing, respectively. In electrophoresis on 12.5% acrylamide gel where sample was not boiled (Pseudonative SDS/PAGE), a band of Kaede 2 was detected as a molecule with a lower molecular weight than that of Kaede (FIG. 8).

[2] = target: the molecule itself; assay: self-association; pseudonative SDS/PAGE, 12.5% acrylamide
Text: (§1) In Momiji, asparagine (N) at position 11 was substituted with arginine (R), leucine (L) at position 29 was substituted with threonine (T), tyrosine (Y) at position 122 was substituted with glutamic acid (E), lysine (K) at position 136 was substituted with asparagine (N), glutamine (Q) at position 138 was substituted with leucine (L), glutamine (Q) at position 142 was substituted with proline (P), asparagine (N) at position 159 was substituted with aspartic acid (D), alanine (A) at position 161 was substituted with serine (S), tyrosine (Y) at position 190 was substituted with threonine (T), phenylalanine (F) at position 192 was substituted with tyrosine (Y), cysteine (C) at position 196 was substituted with serine (S), and 6 amino acids from position 224 to position 229 were deleted. By such operations, the above Momiji became a dimer (FIG. 24). This dimer had fluorescence properties that ultraviolet ray-irradiation-dependently change from green to red, which were equivalent to those of Momiji (FIG. 25). This mutant was named as d16. The amino acid sequence and nucleotide sequence of d16 are shown in SEQ ID NOS: 15 and 16, respectively.

[3] = target: the molecule itself; assay: pseudonative SDS/PAGE, 12.5% acrylamide gel (self-association)
[4] = target: the molecule itself; assay: self-association; pseudonative SDS/PAGE, 12.5% acrylamide, not boiled
Text: as §1

B1: Kaede (fluorescent protein derived from Trachyphyllia geoffroyi) (other)
chain: MSLIKPEMKIKLLMEGNVNGHQFVIEGDGKGHPFEGKQSMDLVVKEGAPLPFAYDILTTAFHYGNRVFAKYPDHIPDYFKQSFPKGFSWERSLMFEDGGVCIATNDITLKGDTFFNKVRFDGVNFPPNGPVMQKKTLKWEASTEKMYLRDGVLTGDITMALLLKGDVHYRCDFRTTYKSRQEGVKLPGYHFVDHCISILRHDKDYNEVKLYEHAVAHSGLPDNVK
notes: also called first fluorescent protein of the present invention; not shown: N-terminal His-tag from the pRSETB vector
Does B1 bind [1]?
Result: binds

B2: Kaede 2 (dimeric mutant of Kaede, T158R and A160E) (other)
chain: MSLIKPEMKIKLLMEGNVNGHQFVIEGDGKGHPFEGKQSMDLVVKEGAPLPFAYDILTTAFHYGNRVFAKYPDHIPDYFKQSFPKGFSWERSLMFEDGGVCIATNDITLKGDTFFNKVRFDGVNFPPNGPVMQKKTLKWEASTEKMYLRDGVLTGDIRMELLLKGDVHYRCDFRTTYKSRQEGVKLPGYHFVDHCISILRHDKDYNEVKLYEHAVAHSGLPDNVK
notes: No tag or expression construct is stated for the gel sample
Does B2 bind [1]?
Result: binds

B3: d16 (dimeric mutant of Momiji) (other)
chain: MVSVIKDEMKVRLRMEGSVNGHDFVIDGTGSGKPKEGTQTIELKVVKGGPLPFAYDILTTAFHYGNRVFAKYPKDIPNYFEQSFPEGYSWERSMIFEDGGICIARNDITMDGGTFYNKVRFEGVNFPPNGPVMQKNTLKWEPSTEKMYARDGVLTGDIDMSLLLKGGGHYRCDFRTTFKAKEKGVKLPGTHYIDHSIEILSHRNDYNNVTLFEHAVARSGLQD
notes: No tag is stated for the gel sample
Does B3 bind [2]?
Result: binds

B4: m16 (monomeric mutant of Momiji) (other)
chain: MVSVIKDEMKVRLRMEGSVNGHDFVIDGTGSGKPKEGTQTIELKVVKGGPLPFAYDILTTAFHYGNRVFAKYPKDIPNYFEQSFPEGYSWERSMTFEDGGVCTARNDITMDGGTFYNKVRFEGTNFPPNGPVMQKKTLKWEPSTEKMYARDGVLTGDIDMSLLLKGGGHYRCDMRTTFKAKEKGVKLPGTHYIDHSIEILSHRNDYNNVTLYEHAVARSGLQD
notes: as for B3
Does B4 bind [3]?
Result: no binding

B5: Momiji (fluorescent protein derived from Scolymia vitiensis) (other)
chain: MVSVIKDEMKVNLRMEGSVNGHDFVIDGLGSGKPKEGTQTIELKVVKGGPLPFAYDILTTAFHYGNRVFAKYPKDIPNYFEQSFPEGYSWERSMIFEDGGICIARNDITMDGGTFYNKVRFYGVNFPPNGPVMQKKTQKWEQSTEKMYARDGVLTGDINMALLLKGGGHYRCDFRTTFKAKEKGVKLPGYHFIDHCIEILSHRNDYNNVTLFEHAVARSGLQDKEKQQQ
notes: Found to be a tetramer by pseudonative SDS/PAGE; also called WT (Momiji); wild type (Momiji); not shown: His-tag from the pET28 vector, said to be at the N-terminus
Does B5 bind [4]?
Result: binds
